From publication PMC11403483

Assays:
[1] = target: recombinant PSG1 (pregnancy-specific glycoprotein 1) (human) (UniProt P11464); test: SPR
[2] = target: recombinant murine Psg23-myc-His (mouse); test: BLI

Sequence of recombinant PSG1 (pregnancy-specific glycoprotein 1) (human) (P11464 35-419): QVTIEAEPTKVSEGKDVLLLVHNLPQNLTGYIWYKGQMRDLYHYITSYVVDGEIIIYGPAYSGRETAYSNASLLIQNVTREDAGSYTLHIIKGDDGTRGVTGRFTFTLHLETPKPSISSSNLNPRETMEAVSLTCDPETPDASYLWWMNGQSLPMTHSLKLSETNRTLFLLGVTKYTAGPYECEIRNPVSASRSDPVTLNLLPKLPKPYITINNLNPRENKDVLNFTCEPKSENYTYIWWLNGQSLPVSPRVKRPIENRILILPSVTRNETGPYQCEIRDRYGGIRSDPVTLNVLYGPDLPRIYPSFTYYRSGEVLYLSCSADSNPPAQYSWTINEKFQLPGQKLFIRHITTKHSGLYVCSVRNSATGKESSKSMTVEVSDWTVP
Sequence of recombinant mouse galectin 9 (O08573 whole entry): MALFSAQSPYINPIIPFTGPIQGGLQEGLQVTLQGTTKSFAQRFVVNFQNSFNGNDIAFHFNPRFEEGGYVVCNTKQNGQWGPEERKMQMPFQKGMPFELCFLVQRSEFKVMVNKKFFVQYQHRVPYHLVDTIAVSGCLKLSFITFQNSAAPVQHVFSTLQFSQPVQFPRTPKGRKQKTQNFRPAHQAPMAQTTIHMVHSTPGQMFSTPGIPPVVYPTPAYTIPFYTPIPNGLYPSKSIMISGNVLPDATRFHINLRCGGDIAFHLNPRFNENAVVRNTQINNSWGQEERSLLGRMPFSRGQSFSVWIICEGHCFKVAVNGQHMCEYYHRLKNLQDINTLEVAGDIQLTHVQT

Substance | Kd [1] | koff [1] | Kd [2] | koff [2] | kon [2]
GAL-9 C-terminal carbohydrate recognition domain (domain or fragment) | 1.7 µM | 0.00415 s⁻¹ | – | – | –
GAL-9 N-terminal carbohydrate recognition domain (domain or fragment) | 5780 µM | 0.0106 s⁻¹ | – | – | –
recombinant mouse galectin 9 (from UniProt O08573 1-353) (natural protein) | – | – | 0.00228 µM | 0.00635 s⁻¹ | 2.79e+06 M⁻¹ s⁻¹
